Test results reported in the supplement of paper PMC12764529.
± gives the half width of the 95% confidence interval.

Assay: folding stability dG unfold from chymotrypsin proteolysis; higher = more stable
Summary of the method: (§1)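 K50 was inferred by Bayesian fitting of sequencing counts obtained after protease digestion of designed mini-proteins. Unfolding free energy was derived by comparison with a sequence-predicted unfolded-state K50 and a shared folded-state K50, for each protease or both combined. The mini-proteins were under 80 residues, had no cysteine, were carried in a PA-tagged cDNA display construct, and were kept only if AlphaFold2 dimer inter-PAE exceeded 15.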

Question: With “SAGGSAGGSAGVTVSLPDGRVVTEVTTLPDGTVVITYTKDGKKYTTTLNGSAPAPTPTLASAGGSAGGSAGG [r17_421_JUSTAS]” as the sequence, how does the “folding stability dG unfold” value read?
Answer: Its value is 2.58 ± 0.035 kcal/mol.

Question: With “SAGGAPVGKFKFELNFPELGENVRSVEATVDPVKGTVTVNFELPGSGKPLTLTVPVKLVSPDNPELFSAGGS [r8_193_TrMRF]” as the sequence, how does the “folding stability dG unfold” value read?
Answer: The value was 0.759 ± 0.12 kcal/mol.

Question: For “SMVTVTFPDASPEEIRAAIEAHPDRDVVLVTAPGKEEELEKILKEYDYTKEEKALPDGRKVRVMKVKVPRSA [r9_1138_JUSTAS]”, which “folding stability dG unfold” value is on record?
Answer: The value was 0.176 ± 0.42 kcal/mol.

Question: For “SAGGSAGGSAGKLEVVELEDGYLVVYDPETGLIVLYTPEEVVAELLDAFDPDKPVVVVEFSAGGSAGGSAGG [r11_374_TrMRF]”, which “folding stability dG unfold” value is on record?
Answer: Its value is 0.689 ± 0.064 kcal/mol.

Question: With “SAGGSAMPPVKVEVVEAEPFVVEGEGGLYLVRPFLVRAPDLPRLFLVVLVEDPGEPDVLAEVFDLDSAGGSA [r15_528_TrMRF]” as the sequence, how does the “folding stability dG unfold” value read?
Answer: The value was 2.55 ± 0.045 kcal/mol.

Question: For “SAGGLTVVSVDPSTNTITIKLGNKDIEITVPPDRPPEVTFTRDPSGTYTITITTEGSTTTYTIPLSQLPSAG [r5_500_JUSTAS]”, which “folding stability dG unfold” value is on record?
Answer: Its value is 3.143 ± 0.015 kcal/mol.

Question: Which “folding stability dG unfold” value does the source give for “SMYKVKVKLLITNPKTGEKLEVEVEATLEEAEKLAEELEKKYPELNWKVEIKEIEIYPIPKPVLVKPGEASA [r9_14_TrMRF]” here?
Answer: The value was 3.51 ± 0.096 kcal/mol.

Question: Which “folding stability dG unfold” value does the source give for “SAGMDDAEAEKLALEEAEKIAKEAGVPEIEVEVERTPSDRWRATIKFPKTGKTYTIELVGDEPSLVEKGSAG [r14_925_JUSTAS]” here?
Answer: Its value is 1.27 ± 0.2 kcal/mol.

Question: For “SAGGSAGGSAGGSEEKLKKMKPKKVATYKVKTVTYKKTKDGTWEPTKVEEVEITVYALPSAGGSAGGSAGGS [r4_288_TrROS_Hall]”, which “folding stability dG unfold” value is on record?
Answer: Its value is 4.04 ± 0.072 kcal/mol.

Question: For “SNNNEVTIEIMIMFKYPRPEYDPDNGKPEPEPVYFMFPIKIEGKADDPEDAKRAADNILDRFLKDPDYIMSA [r9_77_TrROS]”, which “folding stability dG unfold” value is on record?
Answer: Its value is 2.95 ± 0.045 kcal/mol.

Question: With “SAGKEIKIRIEVTRKVKNPETGEEVEEKEVVEITLSEEELKKGKSLEELAKELASKYPGAKVKIVEIESAGG [r19_110_TrROS_Hall]” as the sequence, how does the “folding stability dG unfold” value read?
Answer: The value was 3.08 ± 0.49 kcal/mol.

Assay: folding stability dG unfold (combined trypsin and chymotrypsin); higher = more stable
Summary of the method: as §1

Question: Which “folding stability dG unfold” value does the source give for “SAGGMKIKKITVEKNPETGELVVTVEVEINGKKYKFTFYKDGTVKVEVEVNGKKVTITLPVEELKKLSAGGS [r8_238_TrROS_Hall]” here?
Answer: The value was 3.35 ± 0.13 kcal/mol.

Question: With “SAGDIGRVEARPVPLPGDRPGRVVVVESSVPNLRVLLFRGPEDRWVALVETDGRVEELPLEEALRLLASSAG [r5_157_TrMRF]” as the sequence, how does the “folding stability dG unfold” value read?
Answer: The value was 2.39 ± 0.076 kcal/mol.

Question: For “SAGQLPPGETYTAEIEIRKNEPITLEEIAKKLPGYEFDSVKVEPMPDGWTRITITMTPGDVDKIQDAIRSAG [r5_554_TrROS]”, which “folding stability dG unfold” value is on record?
Answer: Its value is 1.65 ± 0.092 kcal/mol.

Question: For “SAGGSAGGSAGGGWIYMVTIEPKEVKRSPDPGGKGRPTFEFEMDITIIWIRVDPEDLDDSAGGSAGGSAGGS [r10_654_TrROS]”, which “folding stability dG unfold” value is on record?
Answer: Its value is 3.76 ± 0.15 kcal/mol.

Question: For “SAGGSAGGSAGVIDKENDRWYITQETPGGEPKTIPIPWDDIPDLPPENVKEVELMPPDDISAGGSAGGSAGG [r11_779_TrROS]”, which “folding stability dG unfold” value is on record?
Answer: Its value is -0.0024 ± 0.1 kcal/mol.

Question: For “SAGNPPVTITITINPFRHGDEPMYHVKIKNPGGKEREIPFPPDEFKEQIENEFPNIDEIEVEPMRLPPGSAG [r5_25_TrROS]”, which “folding stability dG unfold” value is on record?
Answer: The value was 0.408 ± 0.49 kcal/mol.

Question: For “SAGGSAGGSAGGSKKIKIKVPPGARVRLKNGKWFSVEDIEKLKELGIKEIEIEKLPPKKSAGGSAGGSAGGS [r4_47_TrROS_Hall]”, which “folding stability dG unfold” value is on record?
Answer: The value was 0.999 ± 0.081 kcal/mol.

Question: For “SAGGSAGMPDIIYKVKITVTSSGKVTTLDITLPSEEEVKKAIEELKKKGYTNIKPEIEKFLKSELGSAGGSA [r15_1015_JUSTAS]”, which “folding stability dG unfold” value is on record?
Answer: The value was 2 ± 0.19 kcal/mol.

Question: With “SAGGSAGGSASPSYLLTVTVYRPGGNPLSRRVFPPSVSPAEVEAWLATLPSDYSWEVSREPVSAGGSAGGSA [r18_431_JUSTAS]” as the sequence, how does the “folding stability dG unfold” value read?
Answer: Its value is 2.59 ± 0.048 kcal/mol.

Question: Which “folding stability dG unfold” value does the source give for “SAGGKTKVINVKVKSIEELLEKLAKLPNVKKVEVKEVNGKKEITIEVDGKKIKITKNKDGYYSIEIFPSAGG [r13_907_TrROS_Hall]” here?
Answer: The value was 2.25 ± 0.37 kcal/mol.

Question: With “SAGGETLEVKLKNGYLLRIDLETGKVEVRPLKPVKIELKIEVKPPPVEVKLEKEIKLEKKIEVKVEFSAGGS [r16_453_TrROS_Hall]” as the sequence, how does the “folding stability dG unfold” value read?
Answer: Its value is 2.15 ± 0.18 kcal/mol.

Question: With “SAGGMSLSDPRDIRKAAKLKEIEILVKELNDKGIEVKLDEISFIEGTEEITAIVTFPDGTKYEITINSAGGS [r8_277_TrMRF]” as the sequence, how does the “folding stability dG unfold” value read?
Answer: Its value is 1.42 ± 0.075 kcal/mol.

Question: With “SAGGMVEEVKELAKELGFDVEIELTSVYGEKGYVPYKVTFPNGKTYYITFKGSPDEMKKKLRDLLEKSAGGS [r16_153_TrMRF]” as the sequence, how does the “folding stability dG unfold” value read?
Answer: The value was 2.82 ± 0.065 kcal/mol.

Question: Which “folding stability dG unfold” value does the source give for “PIIHFRSPEDAEDFVKELVKKIAKEARKNGDPGQPYEIKIPVVWHDEDSGGPHRFPIEIEIRPDGDIKLTFS [r1_316_TrROS]” here?
Answer: Its value is 1.42 ± 0.062 kcal/mol.

Question: Which “folding stability dG unfold” value does the source give for “SAGGSAGGSAGGMILRDPNRDIWTADFPDSSGNLVSSREFPPGEIEEVLAEGNVSAEVLPSAGGSAGGSAGG [r11_159_JUSTAS]” here?
Answer: The value was 0.315 ± 0.043 kcal/mol.

Question: For “SAGGSAGGSSMTLTTLEVNPSVTIEPQPGSIVVKTPVTTLVKAGDTLVTLESESITVLPPDLLSAGGSAGGS [r12_1023_JUSTAS]”, which “folding stability dG unfold” value is on record?
Answer: Its value is 1.03 ± 0.062 kcal/mol.

Question: With “SAGGSAGGSAGGSEKKITVYKDKNGNYLVVIEKGDKPIVIPFPKGASLKEALDIIDKLDSAGGSAGGSAGGS [r4_7_TrMRF]” as the sequence, how does the “folding stability dG unfold” value read?
Answer: The value was 2.41 ± 0.14 kcal/mol.

Question: For “SAGGSAKIEIIKDPETGTYTIRLEKEIKPGQTLTITDENGETWKITSVSVEEVNGELYVTVKVEKVSAGGSA [r15_838_TrROS_Hall]”, which “folding stability dG unfold” value is on record?
Answer: Its value is 3.19 ± 0.056 kcal/mol.

Question: Which “folding stability dG unfold” value does the source give for “SAGMEVKITVEREEDGTLRITITVRPDMTPEELAALLEEELGLEVRVVRDEETGERVLEIEIPLPEELESAG [r5_742_TrROS_Hall]” here?
Answer: Its value is 2.39 ± 0.11 kcal/mol.
